# From patent US20230212289A1
# Biological target: CD3 (antigen of the binding affinity table of Example 1) (UniProt P07766)
# Test: kinetic fit with two-state parameters; method not given
Molecule,Kd,ka2,kd2,koff,kon
OKT3-chimeric (antibody),0.622 nM,0.0105 s⁻¹,0.00194 s⁻¹,0.138 s⁻¹,3.44e+07 M⁻¹ s⁻¹
"H4L1 (antibody, V domains shown) VH: QVQLQQSGAEVKKPGASVKMSCKASGYTFTRYTMHWVRQAPGQGLEWIGYINPSRGYTNYNQKFKDRVTLTTDTSISTAYMELSRLRSDDTAVYYCARYYDDHYSLDYWGQGTTLTVSS VL: DIQMTQSPSSLSASVGDRVTMTCSASSSVSYMNWYQQKPGKAPKRLIYDTSKLASGVPSRFSGSGSGTDFTLTISSLQPEDFATYYCQQWSSNPFTFGSGTKLEINR",7.49 nM,0.0282 s⁻¹,0.0023 s⁻¹,0.176 s⁻¹,1.77e+06 M⁻¹ s⁻¹
"H4L2 (antibody, V domains shown) VH: QVQLQQSGAEVKKPGASVKMSCKASGYTFTRYTMHWVRQAPGQGLEWIGYINPSRGYTNYNQKFKDRVTLTTDTSISTAYMELSRLRSDDTAVYYCARYYDDHYSLDYWGQGTTLTVSS VL: DIQMTQSPSSLSASVGDRVTMTCSASSSVSYMNWYQQKPGKAPKLLIYDTSKLASGVPSRFSGSGSGTDFTLTISSMQPEDFATYYCQQWSSNPFTFGSGTKLEINR",15.3 nM,0.026 s⁻¹,0.00294 s⁻¹,0.217 s⁻¹,1.44e+06 M⁻¹ s⁻¹
"H4L3 (antibody, V domains shown) VH: QVQLQQSGAEVKKPGASVKMSCKASGYTFTRYTMHWVRQAPGQGLEWIGYINPSRGYTNYNQKFKDRVTLTTDTSISTAYMELSRLRSDDTAVYYCARYYDDHYSLDYWGQGTTLTVSS VL: DIQLTQSPSSLSASVGDRVTITCSASSSVSYMNWYQQKPGKAPKLLIYDTSKLASGVPSRFSGSGSGTDYTLTISSLQPEDFATYYCQQWSSNPFTFGSGTKLEINR",14.7 nM,0.0205 s⁻¹,0.00238 s⁻¹,0.264 s⁻¹,1.88e+06 M⁻¹ s⁻¹
"H4L4 (antibody, V domains shown) VH: QVQLQQSGAEVKKPGASVKMSCKASGYTFTRYTMHWVRQAPGQGLEWIGYINPSRGYTNYNQKFKDRVTLTTDTSISTAYMELSRLRSDDTAVYYCARYYDDHYSLDYWGQGTTLTVSS VL: DIQLTQSPSSLSASVGDRVTITCSASSSVSYMNWYQQKPGKAPKLLIYDTSKLASGVPSRFSGSGSGTDFTLTISSMQPEDFATYYCQQWSSNPFTFGSGTKLEINR",13.9 nM,0.0212 s⁻¹,0.0023 s⁻¹,0.248 s⁻¹,1.75e+06 M⁻¹ s⁻¹
"H4L5 (antibody, V domains shown) VH: QVQLQQSGAEVKKPGASVKMSCKASGYTFTRYTMHWVRQAPGQGLEWIGYINPSRGYTNYNQKFKDRVTLTTDTSISTAYMELSRLRSDDTAVYYCARYYDDHYSLDYWGQGTTLTVSS VL: DIQMTQSPSSLSASVGDRVTITCSASSSVSYMNWYQQKPGKAPKRWIYDTSKLASGVPSRFSGSGSGTDFTLTISSLQPEDFATYYCQQWSSNPFTFGSGTKLEINR",9.96 nM,0.0041 s⁻¹,0.000744 s⁻¹,0.141 s⁻¹,2.17e+06 M⁻¹ s⁻¹
"H4L6 (antibody, V domains shown) VH: QVQLQQSGAEVKKPGASVKMSCKASGYTFTRYTMHWVRQAPGQGLEWIGYINPSRGYTNYNQKFKDRVTLTTDTSISTAYMELSRLRSDDTAVYYCARYYDDHYSLDYWGQGTTLTVSS VL: DIQMTQSPSSLSASVGDRVTITCSASSSVSYMNWYQQKPGKAPKLWIYDTSKLASGVPSRFSGSGSGTDYTLTISSLQPEDFATYYCQQWSSNPFTFGSGTKLEINR",12.4 nM,0.00534 s⁻¹,0.000594 s⁻¹,0.251 s⁻¹,2.02e+06 M⁻¹ s⁻¹
"H2L1 (antibody, V domains shown) VH: QVQLQQSGAEVAKPGASVKVSCKASGYTFTRYTMHWVRQAPGQGLEWMGYINPSRGYTNYNQKFKDRATLTRDKSISTAYMELSRLRSDDTAVYYCARYYDDHYSLDYWGQGTTLTVSS VL: DIQMTQSPSSLSASVGDRVTMTCSASSSVSYMNWYQQKPGKAPKRLIYDTSKLASGVPSRFSGSGSGTDFTLTISSLQPEDFATYYCQQWSSNPFTFGSGTKLEINR",0.808 nM,0.026 s⁻¹,0.000779 s⁻¹,0.0979 s⁻¹,3.52e+06 M⁻¹ s⁻¹
"H2L2 (antibody, V domains shown) VH: QVQLQQSGAEVAKPGASVKVSCKASGYTFTRYTMHWVRQAPGQGLEWMGYINPSRGYTNYNQKFKDRATLTRDKSISTAYMELSRLRSDDTAVYYCARYYDDHYSLDYWGQGTTLTVSS VL: DIQMTQSPSSLSASVGDRVTMTCSASSSVSYMNWYQQKPGKAPKLLIYDTSKLASGVPSRFSGSGSGTDFTLTISSMQPEDFATYYCQQWSSNPFTFGSGTKLEINR",0.892 nM,0.0268 s⁻¹,0.000814 s⁻¹,0.0986 s⁻¹,3.26e+06 M⁻¹ s⁻¹
"H2L3 (antibody, V domains shown) VH: QVQLQQSGAEVAKPGASVKVSCKASGYTFTRYTMHWVRQAPGQGLEWMGYINPSRGYTNYNQKFKDRATLTRDKSISTAYMELSRLRSDDTAVYYCARYYDDHYSLDYWGQGTTLTVSS VL: DIQLTQSPSSLSASVGDRVTITCSASSSVSYMNWYQQKPGKAPKLLIYDTSKLASGVPSRFSGSGSGTDYTLTISSLQPEDFATYYCQQWSSNPFTFGSGTKLEINR",0.619 nM,0.0228 s⁻¹,0.000719 s⁻¹,0.13 s⁻¹,6.42e+06 M⁻¹ s⁻¹
"H2L4 (antibody, V domains shown) VH: QVQLQQSGAEVAKPGASVKVSCKASGYTFTRYTMHWVRQAPGQGLEWMGYINPSRGYTNYNQKFKDRATLTRDKSISTAYMELSRLRSDDTAVYYCARYYDDHYSLDYWGQGTTLTVSS VL: DIQLTQSPSSLSASVGDRVTITCSASSSVSYMNWYQQKPGKAPKLLIYDTSKLASGVPSRFSGSGSGTDFTLTISSMQPEDFATYYCQQWSSNPFTFGSGTKLEINR",0.642 nM,0.0234 s⁻¹,0.000671 s⁻¹,0.0814 s⁻¹,3.54e+06 M⁻¹ s⁻¹
"H2L5 (antibody, V domains shown) VH: QVQLQQSGAEVAKPGASVKVSCKASGYTFTRYTMHWVRQAPGQGLEWMGYINPSRGYTNYNQKFKDRATLTRDKSISTAYMELSRLRSDDTAVYYCARYYDDHYSLDYWGQGTTLTVSS VL: DIQMTQSPSSLSASVGDRVTITCSASSSVSYMNWYQQKPGKAPKRWIYDTSKLASGVPSRFSGSGSGTDFTLTISSLQPEDFATYYCQQWSSNPFTFGSGTKLEINR",2.55 nM,0.0127 s⁻¹,0.00369 s⁻¹,0.0567 s⁻¹,5.02e+06 M⁻¹ s⁻¹
"H2L6 (antibody, V domains shown) VH: QVQLQQSGAEVAKPGASVKVSCKASGYTFTRYTMHWVRQAPGQGLEWMGYINPSRGYTNYNQKFKDRATLTRDKSISTAYMELSRLRSDDTAVYYCARYYDDHYSLDYWGQGTTLTVSS VL: DIQMTQSPSSLSASVGDRVTITCSASSSVSYMNWYQQKPGKAPKLWIYDTSKLASGVPSRFSGSGSGTDYTLTISSLQPEDFATYYCQQWSSNPFTFGSGTKLEINR",5.68 nM,0.0101 s⁻¹,0.00581 s⁻¹,0.0638 s⁻¹,4.1e+06 M⁻¹ s⁻¹
"H3L1 (antibody, V domains shown) VH: QVQLVQSGAEVKKPGASVKMSCKASGYTFTRYTMHWVRQAPGQGLEWIGYINPSRGYTNYNQKFKDRATMTTDKSISTAYMELSRLRSDDTAVYYCARYYDDHYSLDYWGQGTTLTVSS VL: DIQMTQSPSSLSASVGDRVTMTCSASSSVSYMNWYQQKPGKAPKRLIYDTSKLASGVPSRFSGSGSGTDFTLTISSLQPEDFATYYCQQWSSNPFTFGSGTKLEINR",1.16 nM,0.0229 s⁻¹,0.000831 s⁻¹,0.155 s⁻¹,4.67e+06 M⁻¹ s⁻¹
"H3L2 (antibody, V domains shown) VH: QVQLVQSGAEVKKPGASVKMSCKASGYTFTRYTMHWVRQAPGQGLEWIGYINPSRGYTNYNQKFKDRATMTTDKSISTAYMELSRLRSDDTAVYYCARYYDDHYSLDYWGQGTTLTVSS VL: DIQMTQSPSSLSASVGDRVTMTCSASSSVSYMNWYQQKPGKAPKLLIYDTSKLASGVPSRFSGSGSGTDFTLTISSMQPEDFATYYCQQWSSNPFTFGSGTKLEINR",1.75 nM,0.0234 s⁻¹,0.000939 s⁻¹,0.139 s⁻¹,3.06e+06 M⁻¹ s⁻¹
"H3L3 (antibody, V domains shown) VH: QVQLVQSGAEVKKPGASVKMSCKASGYTFTRYTMHWVRQAPGQGLEWIGYINPSRGYTNYNQKFKDRATMTTDKSISTAYMELSRLRSDDTAVYYCARYYDDHYSLDYWGQGTTLTVSS VL: DIQLTQSPSSLSASVGDRVTITCSASSSVSYMNWYQQKPGKAPKLLIYDTSKLASGVPSRFSGSGSGTDYTLTISSLQPEDFATYYCQQWSSNPFTFGSGTKLEINR",1.38 nM,0.0191 s⁻¹,0.000815 s⁻¹,0.402 s⁻¹,1.19e+07 M⁻¹ s⁻¹
"H3L4 (antibody, V domains shown) VH: QVQLVQSGAEVKKPGASVKMSCKASGYTFTRYTMHWVRQAPGQGLEWIGYINPSRGYTNYNQKFKDRATMTTDKSISTAYMELSRLRSDDTAVYYCARYYDDHYSLDYWGQGTTLTVSS VL: DIQLTQSPSSLSASVGDRVTITCSASSSVSYMNWYQQKPGKAPKLLIYDTSKLASGVPSRFSGSGSGTDFTLTISSMQPEDFATYYCQQWSSNPFTFGSGTKLEINR",1.33 nM,0.0213 s⁻¹,0.000744 s⁻¹,0.119 s⁻¹,3.03e+06 M⁻¹ s⁻¹
"H3L5 (antibody, V domains shown) VH: QVQLVQSGAEVKKPGASVKMSCKASGYTFTRYTMHWVRQAPGQGLEWIGYINPSRGYTNYNQKFKDRATMTTDKSISTAYMELSRLRSDDTAVYYCARYYDDHYSLDYWGQGTTLTVSS VL: DIQMTQSPSSLSASVGDRVTITCSASSSVSYMNWYQQKPGKAPKRWIYDTSKLASGVPSRFSGSGSGTDFTLTISSLQPEDFATYYCQQWSSNPFTFGSGTKLEINR",7.6 nM,0.00709 s⁻¹,0.00496 s⁻¹,0.0647 s⁻¹,3.51e+06 M⁻¹ s⁻¹
"H3L6 (antibody, V domains shown) VH: QVQLVQSGAEVKKPGASVKMSCKASGYTFTRYTMHWVRQAPGQGLEWIGYINPSRGYTNYNQKFKDRATMTTDKSISTAYMELSRLRSDDTAVYYCARYYDDHYSLDYWGQGTTLTVSS VL: DIQMTQSPSSLSASVGDRVTITCSASSSVSYMNWYQQKPGKAPKLWIYDTSKLASGVPSRFSGSGSGTDYTLTISSLQPEDFATYYCQQWSSNPFTFGSGTKLEINR",8.84 nM,0.00491 s⁻¹,0.00243 s⁻¹,0.0814 s⁻¹,3.05e+06 M⁻¹ s⁻¹
